Experimental data from publication PMC10359924, “Identification and characterisation of anti-IL-13 inhibitory single domain antibodies provides new insights into receptor selectivity and attractive opportunities for drug discovery” (Frontiers in Immunology, 2023).
Numbering of substitutions follows the chain as printed.

What was measured:
[1] = target: human Interleukin-13 (IL-13) (1-113) (Homo sapiens); assay: cell-based or functional assay
[2] = target: T1, human Interleukin-13 (IL-13) (1-113) (Homo sapiens); assay: BLI; Octet QKe; N-terminally His-tagged VHH loaded on Ni-NTA biosensors (100 nM), titrated with untagged IL-13; 300 s association, 300 s dissociation; 25°C; HBS-EP+ (10 mM HEPES pH 7.4, 150 mM NaCl, 3 mM EDTA, 0.005% Tween-20); steady-state curves, one-site binding model; conditions: both partners purified
T1 construct: source: 15N or 15N/13C labelled for NMR
T1 sequence (chain, as listed by the source): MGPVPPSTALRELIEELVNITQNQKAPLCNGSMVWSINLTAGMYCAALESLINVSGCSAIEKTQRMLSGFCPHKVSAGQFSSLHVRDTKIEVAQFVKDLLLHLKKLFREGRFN

B1: VHH201 (VHH)
VHH: EVQLVESGGGLVQAGESLTLSCAASGNSFDDYAVGWFRQAPGKEREGVGCINCETGVTTYYADSVKGRFTIHRDNAKNTVYLQMNSLKLEDTATYYCAADRWGTRLVAATYDYWGQGTQVTVSS
notes: From a naive llama VHH phage library (UCB Biopharma); cloned into pET21a(+); not shown: His6, N-terminal, kept
Q: For B1, which “IC50 of inhibition of IL-13 signalling (STAT6/SEAP reporter, HEK-Blue IL-4/IL-13 cells); blocks IL-13 signalling through IL-13Rα1 and IL-4Rα” value [1] is on record?
A: The value was 37.7 µM.

Q: What about the Kd [2] of the same binder?
A: The Kd was 0.9 µM.

B2: VHH228 (VHH)
VHH: B1 VHH with E1Q, A14P, E16G, A24V, N27F, S28R, V34I
notes: as for B1
Q: With B2 as the binder, how does the “IC50 of inhibition of IL-13 signalling (STAT6/SEAP reporter, HEK-Blue IL-4/IL-13 cells); blocks IL-13 signalling through IL-13Rα1 and IL-4Rα” value [1] read?
A: The value was 56 µM.

Q: What about the Kd [2] of the same binder?
A: The Kd was 0.9 µM.

B3: VHH209 (VHH)
VHH: EVQLVESGGGLVQPGGSLRLSCAASGFTFSNYAMSWVRQAPGKGLEWVSSIESGSSRTIYRDSVKGRFTISRDNAKNTVYLQMNSLKPEDTAVYYCNADTYVPKDGSGWSPEYDVYGQGTQVTVSS
notes: as for B1
Q: With B3 as the binder, how does the “IC50 of inhibition of IL-13 signalling (STAT6/SEAP reporter, HEK-Blue IL-4/IL-13 cells); blocks IL-13 signalling through IL-13Rα1 and IL-4Rα” value [1] read?
A: Its value is 67.8 µM.

Q: What about the Kd [2] of the same binder?
A: The Kd was 2.2 µM.

B4: VHH227 (VHH)
VHH: EVQLVESGGNLVQPGGSLRLSCAASGFTFSKYAMNWVRQAPGKGLEWVSAINSFAGSTSYADSVKGRFTISRDNAKNTLYLQMNSLKPEDTAVYYCKYRGYYGQGTQVTVSS
notes: as for B1
Q: B4 was tested. Which “IC50 of inhibition of IL-13 signalling (STAT6/SEAP reporter, HEK-Blue IL-4/IL-13 cells); blocks IL-13 signalling through IL-13Rα1 and IL-4Rα” value [1] did it give?
A: The value was 63.5 µM.

Q: And the Kd [2]?
A: Its Kd is 5.5 µM.

B5: VHH234 (VHH)
VHH: EVQLVESGGGLVQPGGSLRLSCAASGFTFSSYAMNWVRQAPGKGLEWVSAINSGGGTTDYADSVKGRFTISRDNAKNTLYLQMNSLKPEDTAVYYCARGKLGNGLEWGQGTQVTVSS
notes: as for B1
Q: How did the “IC50 of inhibition of IL-13 signalling (STAT6/SEAP reporter, HEK-Blue IL-4/IL-13 cells); blocks IL-13 signalling through IL-13Rα1 and IL-4Rα” value [1] turn out when B5 was run?
A: The value was 49.6 µM.

Q: What about the Kd [2] of the same binder?
A: The Kd was 4.1 µM.

B6: VHH210 (VHH)
VHH: EVQLVESGGGLVQPGGSLRLSCAASGFTFSSSWMYWVRQVPGKGLEWLSDVDPGGGNTYYADSVKGRFTISRDNAKKVLYLQMNSLKPEDTAVYYCNADTYVPKDGGGWSPEYDIWGQGTQVTVSS
notes: as for B1
Q: Which results are given for B6?
A: IC50 of inhibition of IL-13 signalling (STAT6/SEAP reporter, HEK-Blue IL-4/IL-13 cells); blocks IL-13 signalling through IL-13Rα1 and IL-4Rα [1]: 0.2 µM; Kd [2]: 0.04 µM

B7: VHH214 (VHH)
VHH: EVQLVESGGGLVQAGGSLRLSCAASGLLFDINDMGWYRQAPGKQREMVATIRSGGSTVYAEAVKGRFTISRDDAKHSVHLQMNNLKPEDSAVYYCHRTYNSYADWGQGTQVTVSS
notes: as for B1
Q: With B7 as the binder, how does the “IC50 of inhibition of IL-13 signalling (STAT6/SEAP reporter, HEK-Blue IL-4/IL-13 cells); blocks IL-13 signalling through IL-13Rα1 and IL-4Rα” value [1] read?
A: The value was 154 µM.

Q: What about the Kd [2] of the same binder?
A: The Kd was 4.8 µM.

B8: VHH281 (VHH)
VHH: EVQLVESGGGLVQPGGSLRLSCAASGFTFGSYDMSWVRQAPGKGPEWVSYIDSGGRTTYYADSVKGRFTISRDNARNTVYLQMNSLKPEDTAVYYCAREAHGSGWSAANYYGMDYWGEGTQVTVSS
notes: as for B1
Q: Which “IC50 of inhibition of IL-13 signalling (STAT6/SEAP reporter, HEK-Blue IL-4/IL-13 cells); blocks IL-13 signalling through IL-13Rα1 and IL-4Rα” value [1] does the source give for B8 here?
A: The value was 34.3 µM.

Q: What about the Kd [2] of the same binder?
A: The Kd was 0.4 µM.

B9: VHH245 (VHH)
VHH: EVQLVESGGDLVQPGGSLRLSCSASGFTFDDYAMNWIRQAPGKGLEWVSSISWNGDSTYYAESMKGRFTISRDNAKNTLYLQMNSLQSEDTAVYYCNAQEYVGAHVYDYWGQGTQVTVSS
notes: as for B1
Q: What does the source list for B9?
A: IC50 of inhibition of IL-13 signalling (STAT6/SEAP reporter, HEK-Blue IL-4/IL-13 cells); blocks IL-13 signalling through IL-13Rα1 and IL-4Rα [1]: 3.7 µM; Kd [2]: 0.2 µM

B10: VHH251 (VHH)
VHH: EVQLVESGGGLVQPGGSLRLSCQASGFAFSSSTMYWVRQTPGKGLEWVSSITRGGTNTYYRDSVKGRFTISRDNNKNALYLQMNSLKPEDTAVYYCNADTYVPKDGGGWSPEYDIWGQGTLVTVSS
notes: as for B1
Q: B10 was tested. Which “IC50 of inhibition of IL-13 signalling (STAT6/SEAP reporter, HEK-Blue IL-4/IL-13 cells); blocks IL-13 signalling through IL-13Rα1 and IL-4Rα” value [1] did it give?
A: The value was 6.9 µM.

Q: And the Kd [2]?
A: The Kd was 2.2 µM.

B11: VHH264 (VHH)
VHH: B10 VHH with N74D, N75A, A78T, E112D, L121Q
notes: as for B1
Q: What does the source list for B11?
A: IC50 of inhibition of IL-13 signalling (STAT6/SEAP reporter, HEK-Blue IL-4/IL-13 cells); blocks IL-13 signalling through IL-13Rα1 and IL-4Rα [1]: 14.5 µM; Kd [2]: 3.9 µM

B12: VHH229 (VHH)
VHH: EVQLVESGGGLVQPGGSLRLSCAASGFTFRRYDMSWVRQVPGKGLEWVSDINSGGDSTNYADSVKGRFTISRDNNKNVLYLQMNSLKPEDTAVYYCNADTYVPKDGGGWSPEYDIWGQGTQVTVSS
notes: as for B1
Q: B12 was tested. Which “IC50 of inhibition of IL-13 signalling (STAT6/SEAP reporter, HEK-Blue IL-4/IL-13 cells); blocks IL-13 signalling through IL-13Rα1 and IL-4Rα” value [1] did it give?
A: The value was 11.4 µM.

Q: And the Kd [2]?
A: Its Kd is 0.2 µM.

B13: VHH235 (VHH)
VHH: EVQLVESGGGLVQPGGSLRLSCAASGFNFGNSAMSWFRQAPGKGLEWVSSINSGGGGSVYRASVKGRFTISRDDAKNTLFLQMNSLKPEDTAVYYCNADTYVPKDGGGWSPEYDIWGQGTLVTVSS
notes: as for B1
Q: Which results are given for B13?
A: IC50 of inhibition of IL-13 signalling (STAT6/SEAP reporter, HEK-Blue IL-4/IL-13 cells); blocks IL-13 signalling through IL-13Rα1 and IL-4Rα [1]: 74.3 µM; Kd [2]: 3.6 µM

B14: VHH204 (VHH)
VHH: EVQLVESGGGLVQAGGSLRLSCVASGRTISSYAMTWVRHAPGKGLEWVSTISTDASNTYYADSVKGRFTVSRDNAKNTVYLQMNSLKPEDTALYYCARVRLDGWEYDYWGQGTQVTVSS
notes: From a naive llama VHH phage library (UCB Biopharma); cloned into pET21a(+); also called VH204; not shown: His6, N-terminal, kept
Q: Which results are given for B14?
A: IC50 of inhibition of IL-13 signalling (STAT6/SEAP reporter, HEK-Blue IL-4/IL-13 cells); blocks IL-13 signalling through IL-13Rα1 and IL-4Rα [1]: 26.2 µM; Kd [2]: 2.6 µM

B15: VHH238 (VHH)
VHH: EVQLVESGGGLVQPGGSLRLSCAASGFTISNHDMHWVRQAPGKGLEWVSSINPGGTYTEYRDSVKGRFTISRDNAKNTLYLQMNDLKPQDTAVYYCNAWGKGVEYDYWGQGTQVTVSS
notes: as for B1
Q: How did the “IC50 of inhibition of IL-13 signalling (STAT6/SEAP reporter, HEK-Blue IL-4/IL-13 cells); blocks IL-13 signalling through IL-13Rα1 and IL-4Rα” value [1] turn out when B15 was run?
A: The value was 1.7 µM.

Q: What about the Kd [2] of the same binder?
A: The Kd was 0.2 µM.
